Key:
[1] = molecular target: T1, 重组SARS-CoV-2刺突蛋白胞外区 (extra cellular domain of spike protein, S-ECD) (SARS-CoV-2), P0DTC2; assay: indirect ELISA, S-ECD coated at 1 μg/ml, end-point titre; details: remark: other sources report otherwise
[2] = molecular target: T1, 重组SARS-CoV-2刺突蛋白胞外区 (extra cellular …); assay: SPR, Biacore 8K, S-ECD immobilised on a CM5 chip, antibody 125-7.8 nM; details: remark: other sources report otherwise

B1: FC05 (antibody)
chain 1: EVQLLEQSGAEVKKPGASVRVSCKVSGYTLPEVAMHWVRQAPGKGLEWMGGFDPEDGETIYAQKFQGRVTMTEDTSTDTAYMELSSLRSEDTAVYYCATTTPFSSSFWFDPWGQGTLVTVSS
chain 2: QSVLTQAPSVSGAPGQKVTISCSGSSSNIGNNYVSWYQQLPGTAPKLLIYDNNKRPSGIPDRFSGSKSGTSATLGITGLQTGDEADYYCGTWDSSLSAVVFGGGTKLTVL
抗体滴度 (dilution factor (1:x) from 1 mg/mL) [1]: 320000 | Kd [2]: 0.1 nM
